Experimental data taken from patent US20050058634A1.

How the values were obtained:
[1] = target: Soluble cation-independent mannose 6-phosphate receptor (CI-MPR) purified from fetal bovine serum, coupled to Affigel-15 beads (CI-MPR column) (bovine (fetal bovine serum)) (UniProt P08169); assay: CI-MPR column fractionation, beta-glucuronidase activity (FIG. 6)
[2] = target: Soluble cation-independent mannose 6-phosphate receptor (CI-MPR) purified from fetal bovine serum, coupled to Affigel-15 beads (CI-MPR column) (bovine (fetal bovine serum)) (UniProt P08169); assay: CI-MPR column fractionation; enzyme activity of fraction (starting material 1.41)
[3] = target: Soluble cation-independent mannose 6-phosphate receptor (CI-MPR) purified from fetal bovine serum, coupled to Affigel-15 beads (CI-MPR column) (bovine (fetal bovine serum)) (UniProt P08169); assay: CI-MPR column fractionation; enzyme activity of fraction eluted with 5 mM M6P (starting material 1.41)

Sequence of UniProt P08169 (P08169 45-2313 limits assumed): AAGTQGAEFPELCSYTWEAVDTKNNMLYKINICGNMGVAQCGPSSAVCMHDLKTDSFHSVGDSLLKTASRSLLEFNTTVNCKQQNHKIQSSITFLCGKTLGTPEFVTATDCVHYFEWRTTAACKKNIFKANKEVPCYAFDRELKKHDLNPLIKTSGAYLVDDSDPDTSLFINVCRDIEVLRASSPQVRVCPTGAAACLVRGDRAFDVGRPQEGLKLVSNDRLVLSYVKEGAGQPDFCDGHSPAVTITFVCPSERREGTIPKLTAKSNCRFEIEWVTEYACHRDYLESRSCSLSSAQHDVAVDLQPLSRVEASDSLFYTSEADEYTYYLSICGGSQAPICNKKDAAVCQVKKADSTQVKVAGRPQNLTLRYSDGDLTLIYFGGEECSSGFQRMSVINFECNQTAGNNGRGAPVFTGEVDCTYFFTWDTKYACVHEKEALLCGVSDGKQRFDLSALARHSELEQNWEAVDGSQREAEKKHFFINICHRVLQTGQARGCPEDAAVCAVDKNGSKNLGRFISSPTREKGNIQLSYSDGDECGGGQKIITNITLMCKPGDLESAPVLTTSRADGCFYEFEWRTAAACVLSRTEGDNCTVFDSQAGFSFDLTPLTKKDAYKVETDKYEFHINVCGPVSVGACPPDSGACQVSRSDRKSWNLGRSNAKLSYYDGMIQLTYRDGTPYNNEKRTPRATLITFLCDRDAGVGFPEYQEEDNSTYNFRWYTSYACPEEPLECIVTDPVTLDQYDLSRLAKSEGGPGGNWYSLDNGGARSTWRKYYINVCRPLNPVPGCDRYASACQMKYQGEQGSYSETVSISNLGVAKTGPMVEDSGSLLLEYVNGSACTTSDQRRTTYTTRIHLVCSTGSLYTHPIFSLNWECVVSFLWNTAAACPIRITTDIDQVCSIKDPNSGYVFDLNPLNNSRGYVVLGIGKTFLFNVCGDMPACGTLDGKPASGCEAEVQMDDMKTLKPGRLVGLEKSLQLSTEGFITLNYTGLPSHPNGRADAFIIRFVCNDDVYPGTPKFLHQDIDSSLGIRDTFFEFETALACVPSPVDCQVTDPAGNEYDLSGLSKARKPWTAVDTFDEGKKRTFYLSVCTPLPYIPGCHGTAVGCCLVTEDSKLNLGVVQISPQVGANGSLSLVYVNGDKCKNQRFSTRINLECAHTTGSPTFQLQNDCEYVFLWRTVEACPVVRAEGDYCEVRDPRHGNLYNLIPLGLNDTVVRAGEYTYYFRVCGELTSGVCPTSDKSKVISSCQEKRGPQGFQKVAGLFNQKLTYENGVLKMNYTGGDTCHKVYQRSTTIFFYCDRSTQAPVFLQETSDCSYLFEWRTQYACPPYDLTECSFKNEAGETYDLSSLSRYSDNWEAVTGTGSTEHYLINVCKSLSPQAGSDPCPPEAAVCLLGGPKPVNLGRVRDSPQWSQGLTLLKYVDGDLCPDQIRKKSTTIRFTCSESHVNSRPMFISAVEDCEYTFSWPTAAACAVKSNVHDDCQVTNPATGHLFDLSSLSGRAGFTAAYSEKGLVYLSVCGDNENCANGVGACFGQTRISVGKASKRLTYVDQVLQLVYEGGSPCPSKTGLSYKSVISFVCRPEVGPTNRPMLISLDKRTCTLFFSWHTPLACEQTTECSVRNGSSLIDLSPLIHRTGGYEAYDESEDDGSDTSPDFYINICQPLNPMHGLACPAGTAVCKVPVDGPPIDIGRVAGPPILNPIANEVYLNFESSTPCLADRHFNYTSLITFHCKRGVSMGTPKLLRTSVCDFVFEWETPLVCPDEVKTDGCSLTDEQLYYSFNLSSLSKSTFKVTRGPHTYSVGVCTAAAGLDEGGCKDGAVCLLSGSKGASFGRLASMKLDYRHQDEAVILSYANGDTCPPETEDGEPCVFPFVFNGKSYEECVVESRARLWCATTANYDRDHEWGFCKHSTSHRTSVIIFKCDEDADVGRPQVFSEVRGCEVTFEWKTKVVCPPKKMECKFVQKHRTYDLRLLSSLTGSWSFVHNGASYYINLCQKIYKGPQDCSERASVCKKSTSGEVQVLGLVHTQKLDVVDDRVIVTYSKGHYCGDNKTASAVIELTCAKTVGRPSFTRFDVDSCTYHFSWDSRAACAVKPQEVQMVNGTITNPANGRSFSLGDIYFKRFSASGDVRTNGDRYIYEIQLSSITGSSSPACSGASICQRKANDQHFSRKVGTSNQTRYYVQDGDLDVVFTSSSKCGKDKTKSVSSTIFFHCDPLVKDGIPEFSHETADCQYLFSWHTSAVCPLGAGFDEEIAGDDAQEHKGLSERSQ

- percent of starting activity in the M6P elution fraction [1]: 5%
- percent of starting activity in the flow through [1]: 19%
- O.D. at 400 nm (beta-glucuronidase activity in column flow-through, unbound) [2]: 0.27 OD 400 nm
- O.D. at 400 nm (beta-glucuronidase activity in final wash) [2]: 0 OD 400 nm
- O.D. at 400 nm (beta-glucuronidase activity in M6P elution, bound) [3]: 0.06 OD 400 nm
Substance: oxidized beta-glucuronidase conjugated with phosphopentamannose-hydrazine (enzyme)
